In patent publication US9156883B2, “Binding molecules for human factor VIII and factor VIII-like proteins” (DYAX CORP., priority 1999, dated 2015):
Positions of bridges follow the written chain, without caps; N, C: chain ends. No end group written: not given here. *: point of attachment. NHNH2 = NN*

Legend:
[1] = target: T1, factor VIII-like polypeptide (REFACTO®) (Homo sapiens, UniProt P00451); assay: Affinity chromatography capture and elution of REFACTO® on immobilized peptide columns; type: binding; conditions: bound material eluted in the presence of ethylene glycol
T1 construct: amino acids 1-743 and 1638 through 2332 of human factor VIII; purchased Genetics Institute, Inc. (Cambridge, Mass.)
T1 sequence (P00451 20-762): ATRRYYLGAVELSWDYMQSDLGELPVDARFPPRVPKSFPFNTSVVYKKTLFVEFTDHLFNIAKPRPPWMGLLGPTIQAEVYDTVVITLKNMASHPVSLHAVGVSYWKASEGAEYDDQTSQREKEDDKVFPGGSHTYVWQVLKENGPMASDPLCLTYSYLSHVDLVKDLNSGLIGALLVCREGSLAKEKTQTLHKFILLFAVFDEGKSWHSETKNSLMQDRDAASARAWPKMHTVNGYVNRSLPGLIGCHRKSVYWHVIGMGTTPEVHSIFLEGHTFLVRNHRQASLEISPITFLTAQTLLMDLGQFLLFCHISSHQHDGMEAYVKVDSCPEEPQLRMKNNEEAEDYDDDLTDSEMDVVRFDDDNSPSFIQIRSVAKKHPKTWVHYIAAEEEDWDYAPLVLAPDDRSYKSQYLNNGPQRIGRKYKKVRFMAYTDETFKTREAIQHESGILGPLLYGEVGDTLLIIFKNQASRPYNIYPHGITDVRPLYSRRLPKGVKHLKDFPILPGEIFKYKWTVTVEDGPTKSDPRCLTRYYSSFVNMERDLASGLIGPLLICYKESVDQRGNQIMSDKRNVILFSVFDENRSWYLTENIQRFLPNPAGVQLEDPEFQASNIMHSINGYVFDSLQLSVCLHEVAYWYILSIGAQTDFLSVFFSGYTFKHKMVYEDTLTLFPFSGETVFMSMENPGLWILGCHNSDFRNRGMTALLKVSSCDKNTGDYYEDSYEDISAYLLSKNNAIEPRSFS
T1 sequence (P00451 1657-2351): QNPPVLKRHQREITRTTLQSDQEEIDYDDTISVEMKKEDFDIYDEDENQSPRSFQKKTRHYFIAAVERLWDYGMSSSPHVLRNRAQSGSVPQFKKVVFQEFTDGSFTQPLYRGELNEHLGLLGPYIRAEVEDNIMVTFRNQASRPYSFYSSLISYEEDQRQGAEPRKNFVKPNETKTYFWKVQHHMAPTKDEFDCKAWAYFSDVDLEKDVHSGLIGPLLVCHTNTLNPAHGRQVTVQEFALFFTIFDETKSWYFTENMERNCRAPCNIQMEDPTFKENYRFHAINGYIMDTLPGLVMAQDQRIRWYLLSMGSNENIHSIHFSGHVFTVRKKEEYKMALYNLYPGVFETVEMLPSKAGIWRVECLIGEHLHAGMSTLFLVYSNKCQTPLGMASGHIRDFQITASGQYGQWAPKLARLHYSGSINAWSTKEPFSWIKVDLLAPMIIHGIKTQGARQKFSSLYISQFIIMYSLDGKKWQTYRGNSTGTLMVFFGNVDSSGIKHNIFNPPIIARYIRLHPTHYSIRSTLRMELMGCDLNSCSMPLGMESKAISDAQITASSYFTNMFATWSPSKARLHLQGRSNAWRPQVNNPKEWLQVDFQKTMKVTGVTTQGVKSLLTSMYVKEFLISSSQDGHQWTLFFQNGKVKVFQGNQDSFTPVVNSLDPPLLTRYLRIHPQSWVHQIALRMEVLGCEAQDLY
Procedure: The candidate ligands were immobilized onto a formyl-substituted ethylene glycol-methacrylate chromatographic resin (Toyopearl Formyl 650-M, pore size of ˜1000 Å; TosoHaas, Montgomeryville, Pa.). The hydrazide-containing peptides were immobilized by facilitating hydrazone bond formation, the GI-1 and -2 peptides were immobilized via reductive amination using NaCNBH3. The amount of polypeptide immobilized on the solid support was determined by quantifying the amount of free polypeptide remaining in solution. The amount of ligand immobilized per ml of resin was in the range of 0.7-1.5 μmol for the hydrazine-immobilized peptides.
The nine peptides were evaluated by affinity chromatography for their ability to capture the REFACTO® described in Example I, under specific binding and release conditions.
The factor VIII-like polypeptide (REFACTO®) was diluted in SP Buffer to a concentration of 150 μg/ml. The affinity resins (˜350 μl) were each packed into glass columns, and approximately 150 μg of the factor VIII target was applied to the prepared affinity columns at a flow rate of 200 μl/minute (linear velocity of 170 cm/hour). […] Fractions were collected and the mass and activity of recovered factor VIII-like polypeptide was determined by reversed-phase HPLC and by enzymatic assay.
For the mass determination, a standard curve with REFACTO® (0-200 μg) was generated and the amount present in each fraction was calculated according to techniques well known in the art. Reversed-phase HPLC in the presence of 20 mM EDTA was used to disrupt the REFACTO® molecule into its component subunits, which were eluted with a gradient of acetonitrile/0.01% TFA. The activity assay was a Factor IX-, X-based assay. The results for each affinity resin are set forth below (Table 6).

REFACTO® = target: T2, REFACTO® (Homo sapiens, UniProt P00451); assay: Comparative batch binding and elution of REFACTO® with regenerated immobilized ligands; conditions: target REFACTO® 100 U/ml in modified Buffer 1
T2 construct: amino acids 1-743 and 1638 through 2332 of human factor VIII; purchased Genetics Institute, Inc. (Cambridge, Mass.)
T2 sequence (P00451 20-762): T1 sequence (P00451 20-762)
T2 sequence (P00451 1657-2351): T1 sequence (P00451 1657-2351)
Source text: A commercial ELISA kit (IMUBIND fVIII ELISA kit, Product #884, American, Inc., Greenwich, Conn.) developed to detect factor VIII was used according to the manufacturer's specifications in order to detect both the REFACTO® and the nhfVIII targets. The kit employs a sandwich ELISA assay in which the target is captured by an immobilized monoclonal antibody and the captured target is detected with a second monoclonal antibody-horseradish peroxidase (HRP) conjugate. Addition of the peroxidase substrate and its subsequent reaction with the HRP produces a blue color (detected at 630 nm) which changes to yellow (detected at 450 nm) on addition of the 0.5N sulfuric acid stop solution. Color response is calibrated with factor VIII standards provided by the manufacturer.
Following the pH 2 washes, the beads were washed once in PBS containing 0.05% azide and stored at 4° C.
A sample of nhfVIII was diluted to a final concentration of 100 U/ml by addition of 2.32 ml H2O, 180 μl 1M NH4OAc, pH 6.3 (to 72 mM), and 1 μl Tween 80 (to 0.04%). REFACTO® stock solution was diluted to 100 U/ml in a modified Buffer 1, in which the NaCl concentration was reduced from […] to 330 mM.
Immobilized peptides were tested for binding to nhFVIII in comparison with REFACTO®. […] Next, nhfVIII and REFACTO® solutions were mixed with regenerated affinity beads bearing the CS-454, CS-456, and CS-458 ligands in a comparative batch purification procedure.

Row | % of Total Recovered in: Eluate (REFACTO®) [%] | % of Total Recovered in: Unbound (REFACTO®) [%] | % of Total Recovered in: Wash (REFACTO®) [%] | Substance | capture of the factor VIII target by the affinity resin (in words) [1]
1 |  |  |  | AEGTGDFGCSWLFPCPFDPGPEGGGS-NHNH2 (disulfide 9-15 (inferred)) [CS-456] | captured virtually all of the factor VIII target applied
2 | 27 | 59 | 14 | AEGTGDFCWVFAFDHCHDPGPEGGGS-NHNH2 (disulfide 8-16 (inferred)) [CS-458] | 
3 |  |  |  | AEGTGDHLCGAWFRPCDADPGPEGGGS-NHNH2 (disulfide 9-16 (inferred)) [CS-454] | captured virtually all of the factor VIII target applied
